Data on one molecule can be found in PMC11508043 (Nature, 2023).

The assay has as its target Recombinant wild-type human histone H1.0 (human). Put plainly: turbidity.

B1: ProTα (unlabelled) (natural protein, human)
chain: GPMSDAAVDTSSEITTKDLKEKKEVVEEAENGRDAPANGNANEENGEQEADNEVDEEEEEGGEEEEEEEEGDGEEEDGDEDEEAESATGKRAAEDDEDDDVDTKKQKTDEDD
As to B1, the “ProTα:H1 ratio at maximum phase separation” value is 1.2 ProTα:H1.
